These results are taken from patent US20230256017A1 (published 2023).

To fix the notation:
T1: CD2 (human, UniProt P06729 25-351)
T1 construct: whole, on cells; also called T-cell surface antigen T11/Leu-5/CD2
T1 sequence (looked up): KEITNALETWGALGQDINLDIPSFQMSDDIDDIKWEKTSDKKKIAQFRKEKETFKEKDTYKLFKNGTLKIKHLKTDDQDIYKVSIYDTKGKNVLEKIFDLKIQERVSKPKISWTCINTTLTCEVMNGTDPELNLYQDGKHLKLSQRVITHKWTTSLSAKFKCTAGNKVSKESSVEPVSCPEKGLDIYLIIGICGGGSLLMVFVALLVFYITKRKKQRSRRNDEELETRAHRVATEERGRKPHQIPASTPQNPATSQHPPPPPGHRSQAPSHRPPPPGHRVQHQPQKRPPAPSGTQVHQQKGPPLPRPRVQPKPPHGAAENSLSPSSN

T2: BCMA (TNFRSF17) (human, UniProt Q02223 1-184, limits assumed)
T2 construct: Member of a commercial human plasma membrane protein array
T2 sequence (looked up): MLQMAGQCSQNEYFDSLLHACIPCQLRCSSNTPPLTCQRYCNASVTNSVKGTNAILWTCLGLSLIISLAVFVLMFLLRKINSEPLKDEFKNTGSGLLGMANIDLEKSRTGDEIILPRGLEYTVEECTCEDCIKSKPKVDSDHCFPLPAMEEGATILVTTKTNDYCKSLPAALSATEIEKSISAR

B1: Construct 1 (bispecific antibody, human IgG1, kappa)
light: DVVMTQSPPSLLVTLGQPASISCRSSQSLLHSSGNTYLNWLLQRPGQSPQPLIYLVSKLESGVPDRFSGSGSGTDFTLKISGVEAEDVGVYYCMQFTHYPYTFGQGTKLEIKRTVAAPSVFIFPPSDEQLKSGTASVVCLLNNFYPREAKVQWKVDNALQSGNSQESVTEQDSKDSTYSLSSTLTLSKADYEKHKVYACEVTHQGLSSPVTKSFNRGEC
heavy: not shown
notes: Anti-CD3 scFv fused to an anti-CD2 Fab, further fused to a wild type Fc; also called F1
B2: Construct 15 (bispecific antibody, human IgG1, kappa)
light: B1 light
heavy 1: QVQLVQSGAEVQRPGASVKVSCKASGYIFTEYYMYWVRQAPGQGLELVGRIDPEDGSIDYVEKFKKKVTLTADTSSSTAYMELSSLTSDDTAVYYCARGKFNYRFAYWGQGTLVTVSSASTKGPSVFPLAPSSKSTSGGTAALGCLVKDYFPEPVTVSWNSGALTSGVHTFPAVLQSSGLYSLSSVVTVPSSSLGTQTYICNVNHKPSNTKVDKRVEPKSCDKTHTCPPCPAPELLGGPSVFLFPPKPKDTLMISRTPEVTCVVVDVSHEDPEVKFNWYVDGVEVHNAKTKPREEQYNSTYRVVSVLTVLHQDWLNGKEYKCKVSNKALPAPIEKTISKAKGQPREPQVCTLPPSREEMTKNQVSLSCAVKGFYPSDIAVEWESNGQPENNYKTTPPVLDSDGSFFLVSKLTVDKSRWQQGNVFSCSVMHEALHNRFTQKSLSLSPGK
heavy 2: not shown
notes: Anti-CD2 Fab-Fc paired with anti-CD3 scFv-Fc-(G4S)-COMPcc; also called F15
B3: Construct 12 (bispecific antibody, human IgG1, kappa)
light: B1 light
heavy 1: B2 heavy 1
heavy 2: not shown
notes: Anti-CD2 Fab-Fc paired with anti-CD3 scFv-Fc-(G4S)3-Matrilin1; also called F12
B4: Construct 3 (bispecific antibody, human IgG1, kappa)
light: B1 light
heavy: not shown
notes: Anti-CD2 Fab fused to a wild type Fc, further fused to an anti-CD3 scFv; Stated ligand valency of 2; also called F3
B5: Construct 7 (bispecific antibody)
light: B1 light
heavy: not shown
notes: Anti-CD3 scFv fused to an Fc, further fused to an anti-CD2 Fab; Stated ligand valency of 2; also called F7
B6: Construct 5 (bispecific antibody)
light: B1 light
heavy: not shown
notes: Anti-CD2 Fab fused to an anti-CD3 scFv, further fused to an Fc; Stated ligand valency of 2; also called F5
B7: anti-human BCMA single chain antibody variable fragment (scFv) (PI61) (scFv)
scFv: QVQLQESGGGVVQPGRSLRLSCAASGFTFSSYGMHWVRQAPGKGLEWVAVISYDGSNKYYADSVKGRFTISRDNSKNTLYLQMNSLRAEDTAVYYCGGSGYALHDDYYGLDVWGQGTLVTVSSGGGGSGGGGSGGGGSQSALTQPASVSGSPGQSITISCTGTSSDVGGYNYVSWYQQHPGKAPKLMIYDVSNRPSGVSNRFSGSKSGNTASLTISGLQAEDEADYYCSSYTSSSTLYVFGSGTKVTVL
notes: also called PI61 scFv

One assay concerns the target T1, CD2. In words: legend of FIG. 55 (CAR transduction of donor T cells by costimulatory molecule targeted); no direct binding assay.
Take B1: the binding result is listed as “binds”.

In the case of B2, the binding result was “binds”.

For the molecule B3, the binding result was “binds”.

B4: the binding result is given as “binds”.

For B5, the binding result is “binds”.

With B6, the binding result is listed as “binds”.

The target of a further assay is T2, BCMA (TNFRSF17). In words: commercial human plasma membrane protein array.
As for B7, the binding result is given as “binds”.
